Test results published in US20120230976.

Molecular target: mixture of gliadins (SIGMA Cat. No. G3375)

B1: neprilysin from Rothia mucilaginosa ATCC 25296 (RefSeq ZP_05367591) (protein)
chain: MTTNSGITKEWVDETVKPGDDFFRHVNGKWLATHEIPADRPKDGGLYTLRDNAEKHVRELVEKIAKEQPESRIGALYNSFMDVEKIEADGLEPLLKEIAPILNSATPSHLAVTLALLSRAGLPQLFAWYTSNDPKDPKNYTFFLYQSGLGLPDESYYREEKHEAACAAYVEHIARMFQLTGLAEGFGLTPEQAAQLVFTHESELARLHWNVVENRDAEATYNPYQATELDEKFPGFPFSQWLLALGADPETLGQVIVAQPSFFEGAAKLFTSIPLMSWKLWAVWTVLRSRAPFMYDELVQESFNFYGKTLSGTQQIRERWKRGVGAVEKALGEEIGQEYVAVHFPPSHKEKMLVLVGNLLEAYRESIESLDWMTEATRQKALEKLSKFVTKIGYPDKWRDFSALELVPGDLFENLRRTGAFDADWLIARKGQPVDKAEWLMTPQTVNAYYMPPANEIVFPAAILQPPYFNPDADDAANYGNIGMIIGHEIGHGFDDQGSRYDGDGKLESWWTEEDYAKFKERTAALVEQYNAYVPVGLDPKFHVNGELTLGENIGDLAGMSIALKAYRLALKKQGIESLADAPVIDGMTGIQRFFFSNARGWCTKSRPQHAEVMISVDPHSPDEFRVNGVVRNIDEFYEAFGVSEGDALYLAPEERVRIW
Question: Which “gliadin zymography (proteolytic activity)” value does the source give for B1 here?
Answer: The clear bands observed in the zymogram gel confirmed proteolytic activity towards gliadin
